Drawing on patent US20040092720A1 (US Dept. of Health and Human Services, published 2004), this text covers Counts/minute bound for 2 molecules.

Where two headings read alike, the source gives them in different places.

Assay [1] deals with T1, recombinant human IL-6 (human, UniProt P05231 30-212, labeled with radioactive iodine).
T1 construct: Labeled probe in solution, added to wells that carry the synthetic peptides; also called IL-6 ligand; Interleukin-6
As to the kind of experiment: radioiodinated IL-6 on peptide array.

The target in assay [2] is T1, recombinant human IL-6. In words: radioiodinated IL-6 on peptide array. On the procedure: Synthetic peptide arrays were constructed in 96-well microtiter plates in accordance with the method set forth in WO 91/02714 (Saxinger), and used to test the binding of recombinant human IL-6 that had been labeled with radioactive iodine (radiolabeling by standard methods). After incubating the radiolabeled IL-6 ligand in a well with each synthetic peptide, a washing step was performed to remove unbound label, and the relative level of radioactivity remaining in each well of the plate was evaluated to determine the relative affinity of each peptide for IL-6 ligand.
This is another data set of the same source.

B1: Peptide E59 (peptide)
peptide: SLTSDTLYMVRMAAYTDEGGKDGP
For the molecule B1, the Counts/minute bound with recombinant human IL-6 [1] came out at 1270 counts/minute.

B2: Peptide B22 (peptide)
peptide: SLTTKAVLLVRKFQNS
Regarding B2, the Counts/minute bound with recombinant human IL-6 [2] is 12600 counts/minute.
